According to patent US20260193324A1:

Biological target: human GLP-1 receptor (GLP-1R) (human) (UniProt P43220)
Chain of UniProt P43220 (P43220 24-463): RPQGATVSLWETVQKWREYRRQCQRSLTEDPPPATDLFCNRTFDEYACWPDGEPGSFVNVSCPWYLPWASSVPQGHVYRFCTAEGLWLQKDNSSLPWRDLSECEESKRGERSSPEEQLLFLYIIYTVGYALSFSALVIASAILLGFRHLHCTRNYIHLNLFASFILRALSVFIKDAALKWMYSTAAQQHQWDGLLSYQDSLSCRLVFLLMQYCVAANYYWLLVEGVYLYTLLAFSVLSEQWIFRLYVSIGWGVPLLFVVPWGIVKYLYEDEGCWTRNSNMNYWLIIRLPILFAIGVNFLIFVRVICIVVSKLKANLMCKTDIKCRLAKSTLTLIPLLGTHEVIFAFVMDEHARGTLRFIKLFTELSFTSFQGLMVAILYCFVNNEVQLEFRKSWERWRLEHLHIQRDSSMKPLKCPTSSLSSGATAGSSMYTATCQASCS

GLP-1(7-37) peptide (from UniProt P01275 21-180)
EC50 (read off the curve), 4 hr stimulation: 1 nM
